Results reported in the DeepSol protein solubility set.

experiment: soluble on expression in E. coli; label from the status in PepcDB or PDB records

Sequence | soluble on expression in E. coli
MAHHHHHHMPHAGNKLVPIGCNMNDAAYPFRGEHRLANCINHGHSGVVKRIPTSIAMRISGSNLVIEEVKTPKGVELECELGVDGGIARPVSLQQASAFMVPSDGHNYNLIAAVKASGNPMKHYCKLTFNGSEGITVLRMRAPEGCSPDAVYIVADGRRLRPTAGWFRIPIHTKECALVANLPLDDAPPPPPPPPPPPPPPPSFSFTATPPLPPAPSGGLAEKTLEATTGAPWTAENVPELETRIHPPLIPNAGAVTLTEPVPAAMPSFVATAPGFSLQLTGENGSSVFGVGVAALPLSHRRAQTVQIVVSDAQGRVLLRQRSHVPSLEPAAVSLAVKDDGKGGLALSANPGSKITVGGVPQADPSATAVLPRVVPQRAVVEQPNADGSVSKATLDVAPTSEPAPVSAAVSKQLPQQPQAPALPEAWVKELSDALQNSNPEEQRHLLQRIYPSSIPGVTIVNFVRDQLTRQPPAISFTVSSNGLEAVQCPGCSVTAAVGNDPARQIPAFGSVALASGKSALLTATSTVRHSAVSACRVQIGVPSAVAFTSPTVSAYPPHAAAGPPMQAGPSADERADSDVVSRLVDCLLRHNLSAPLVARELDSMSTAPFSAQGRRMLSLLTSCLRSATASGAAAAMQAASTQAAAITHAAPEEIFFTCGPGYVDNIYTTQPQYQLFGAVDNQAPQGGAAARPDTCAGYSRG | not soluble
MAHHHHHHMPPSNVRKEEAELRQIAKQARLARKEVQQRERKQRQRERRAAAKNGEAATAAQQTAASSAMRTRGAIILPDEVQELRQRLMGDDAASAASAADSPARKTKKAAARKAARSPAKKSAGAAGASNHGAASSSTLVPTYHQEVHFKKKMFFVDVVLHHVPHQKIDISETNTNRLVVDTCGHTKKYRLVLPYPKGMLCDAAAATYEFENGILQCRLPIMDGAIPASLEAENAKMIEKMRQQRALRFRVTRDGDLTVRTRQALLTQAPAAQAALPEAKKAAAAQRGDDTDSDNEVVNAQAREAKGTEKMASPKSRKRTRDGDEEDSKETPQQTRSVSAKKAKGAAAAVNTLPTEAATASKPAAKKSKPDVFEAEHAKVMEAAKAAAAKVHLSMRERVKLAKAVQASREERLQTRSLRKERKEEQKQQSFHRILEEQKRQLLARASMQQPAPSPTAKVNASAKAVHFADE | soluble
MAHHHHHHMQGTGSAKSFLEKLKSGRTTSAAIDNNAPPDGDGVILRRVERQYASEPLSALGLKLTEDAEVLSTEVGSPAAKSNIPLHYMIIAVNNQFVGSRADFEDIAAQLLTLVIKLQSTAAMSELLANILNEEEKNFNENGDSCIDVNELLRTTPRYGFLSAEHPMFLRWNQRLQTQREARQLIRQATREAEEQQAKEALEALRRVADAEDEIQQQQAQQERQHQQMLRQGPETVNPSAPEAGARPGGEVLLKQVQDESTFGESNVNNEGFEESPEEASPEELLKLIGAEPVETEVVQHVDADEPTEVRFFINPTEEYALSNGTRVTISVKKRSGPIPKPPPGKPPKGIEKADDKQAQ | not soluble
MAHHHHHHMQPFQFVPQVDNKVNVVSMQPFQMYVPNHNMMVPQACPENIQQYHHQPIFFEPLPPIYVKNQLLPSPILVQMPTTVVVQNESQPAMVLSQPPSNIVVKNNPPTSVFVKQSNPNVVVKNEAPPNYVQSVEACQEGVVADMSRPMMTTLNKNIL | not soluble
MAHHHHHHMQRYLMNTSYLQGQLKSLYALHNKTVADYGELVQNLNEECTILCDVVPSYRISSTLENEDGGGQRKQKEVYNVQKLEHEILTQYTHFLQLLRKLSRKSHPEQQALGSRLCARLVKSSAPEFNHADALLSLAIDFANSKSVRVAQPCQTALSELLDDQKVSDTTEHIVGALLRIVRKRSYAMNPKLLNLLLHVRVAMVDVHREDLAEEKAKSKRLKKEDKELARQLQKSKARRDRAEIAAKQTRILHRIFVIYLRVIEASKTCSPVHQTKILAPTLEGLVKFAPLVNLELYQQLMEALKDLVKGGGTSRTRLRVGGTEGGSDGDNVDDKHEEETATSVTTRLHALVAVATLAQRDATATASEWRVDLSYFHEVLFRCLGEALELPSAESSSSAKMTREGEQEASNGDMDEVASQGSTSSAGSLSSQAFSIAQSMTQGTLVHQNASREWTFHVGLVLRAVDLLVLTQKHLPVARVTAILRRLIQATPLCPPHIAMSILALCHRIVLRYPLAGGVIVGGSDNVIAGRGAYNPEALQTASANADSSFTWELSLLSHSYHPTLRQVAETMCKHYHKVSKHQHGQAPIVTKQLDSLGPYEVIEEYDPSLGNLKPAAPLPTALKAEVRKRQREEAQAYEVA | not soluble
MAHHHHHHMQSVLPYTTNPAQIGSIEKLKLINPSSAAATGPYVNVRDPKLVVGGLLHNWDAEAAHALLNAPKSVQTWDLSWTEDETNWEERVHRCTYPEEVEDLLPAKWIGYRVQSDVDETLARVCKLCTALVDRLVSLSQGNNANVSTAKWRQRQALYDRLGAVMELLEASVGEAIPILKLKDPEFIQNCWRQMQDDERVEIISVLGTKEYD | soluble
MAHHHHHHMQTYHRHMTSSSNPVVIFVFDHQGSAVTDFWAPLLQSVSKGLDAFGIEVAHAPTSSEIGQQLLAAMNAGSGPIILFFQGVGDTPAEGGKGLKMPIAYDGNIDMAHIMSWGLSCISSSVTHRVHNDVDLARFFAQYPQYPALPHVLYFPSTSYTPGGYLALSQHFALDAVFGVVPNAFTAPNATHIAQRYNITSKDELPVLLVLHRSTADAGGGAGESDRVVRMPAAATSLSYREALAFLSTQITDTVAALVAKAESTQNQHFLEVAESRRVYMMGQLIERQHDIVEEERLQMAREPILVKDQAVWAKECVQLPKKHRCVAAFVDSAQDSAAKDNAVKVLSLVSVKLLEIMGREAQKVSLVVVDRQGSDAVREYFDVGHNGFPDVLFLSLDRPAKYYNFVGTFSAEGVTQFVASHDAQLTQKDVRGGHTFIPRMVPKLEEAVAVPRSGDEDKDDL | soluble
MAHHHHHHMRAQSDLSPSSVSELRSKLKGVRVEVGSLVSFRDEPAFEMVMRLNKRHNGNLVSAVLSKGNAACGLGGDASGSGEGIGEGRVMADRSRHVEELRMVFIPKAYGAFLEDEMQKWLDPFRGRGEANRTKRKRDEVDDNEVTDIDSDVDTDECDDADSFRSV | soluble
MAHHHHHHMRDRVSPGMRPYRNMCASSPCGRLSHWVVALLPLPLSGTRHLLLRIPITRTHTHTHAAHATDKSEVLSSVVAPPPPPGHAALTTVYFVLVVDVGTHLSLSLSMNRDGVEDGIYVNFFGFDGKAAMLACDMYGILPENLLYLPKKMFLQTGDESEQVLLVRYTMCERSRQGTFRTLLGAKSKLIAEGKVEALWEERRRVCQGAAPCPRFTEKQLEEAAAALDTDSESDEERQVDERGMRKPPPPLPPAPPFAPDGPRGEAAAEAAATENDESPTPVTDTPFSRAPDSEPLPPPPTQASSDAGGETRRGSGTTATNDNAALAVDAKRTTQQLPNDWTQYDVVNSLELPRAHKLCSQPPSIPQAYFPRLLETLSMEEKELAAAQKELSRYSKKSARRLRARQQERSNEPSAPGRSTSLPPLSSSPAHKPATTHLHQSVELRNRRELAAVHRVAQAHLRFLSERYEQGRSIDEKMEGVATLGTLEHMLKYQKSIGVAPEFEDRLQSKMVREESRAALQQQLRESEWERAYAIEEKAQHAQEVLERERERTKGIVAEALRTQRLITDWKQVAAHRQQETHLNGVLHRSAVRHAKADAYIETKRAATGMSRYYHDQQEVHRRQLRDTIRDMMISKKFSADGVADEDNDVVA | not soluble
MAHHHHHHMRISCSCLNKSLVSTAIPSDIIERAGTNLPGIPHKYRVCRAYRQWLKLAVLCPHSLLCELNEHAQMNERFVIIVRQKFREGEELRDPEEIAVAVQSCERSLAMFRFLAADGARRRFPEAKPRLNLHKMGFMEMAKINYTQMAKEYWNTYIMRRW | not soluble
MAHHHHHHMRKKGSGFIGGKLNLKIKKKKKNAKQEARHGEASHVDSVAKSGEAVQVKSDPSEHDGKKDGSEKIIKGTGRITTEKNTVRGVRTDFMAEIKEGYDIILENPSTFRNERRTVTSVLSNKTLLVHEEFTTDISTTCAFYIASGGKSGGKPVGQPADTPEAHIGVEYAKVFEQTSRQDQVEVREKTGLWSYRVVKKKVDGRLTNEEKLDMRVRSGRDKFCW | not soluble
MAHHHHHHMRPSLPKKVLAWIASYPSYFIVDDPTEKDPSKARIRRASDRQPLDVALELYRWIPEEGISEAALLTKLSEVHRDYVKRIGLRHIVDSLSEWLSFTEAPGGGGGGAEGEEKVLLLRRLQTEVELERAIHTEESKLASGDENSLPVQIEDAEMERRWPKLKYEGTMSQQQASVARAQQRRGRGDI | soluble
MAHHHHHHMRPVTRSPLLVAAVVVAATLCLNGDNAILSLSSGVRLAHANGPITKDQCFILNPQPTVTSCNAYLPPIVDLYGSLPYDTTPDYADCVKERCLCTGAATSTAIKTSGFFCNSSGWMESGYTTCNVLVDCFSKFWRCINRALYMRYLTDRENLDSGEVDLITDLISHGSHPGEPFDITDTFRSCRLMMCAAANSRQNCGLVTCLPNYTQCDEYIRPPPLPYTHPLCTQGCRAALLMMALTIAAVSFSACCFCCCPAQVRISEPVLMEEVPAHKVELSSMRSEVEAQARRHRTNDPYTQ | not soluble
MAHHHHHHMRSGPCPLPPAVAARSLLSPFGIGVSKRLALVGSGNSITALLVKENVPAGTPLLLAPDAALLTCQGALDADVDGLVPPPAEMLELLKRDTAQLDHVYLAYYLSLRCFTNTEDWFSSQIHRFKDSGSASQEDTASSRIWERFAQKYVTAPAPVFMAALQYVWESCFRKPATEADSASAPLPAALAVAPVVDVASQSRNATNSALTATTAKALKETHLHSDITGARQALLAKNDAYVYWVLTAITDIPVGGEVSVSSESVL | soluble
MAHHHHHHMRTAVGSGAGASAAARAIPTAVPLTVADIDALARRDGVVSSDAVVSQQGTVASSRSVAELQAVVQSLQQENAELRERLERDRRQMLRSAMDVRDLHASQKQIRQRDLDRIEWLYCDNQRLRKILEMQGSAQELAGVLSPQPPAAAPATAHRPSLEGLRPLPEVPVELNAIEEEMPALEAEVVHLRGALVLKTQHLDDLWGHAERAEGYVQDLLQKLEHVQGIVREESDSCARRSKHLESTDQPLEDIVSFVSLRDHSSATQLTGPSSTTPFPFATVGRCEHIKRAAAVHGG | not soluble
MAHHHHHHMSDSEWSSDSGVSNAEAIAAASLNKHLGELMTLQHPSRVTHRRPAYATSEGTTASSATISHTPRVSGEAPRKQARMDISSLIRQALSQSSAHCTSANVDEVAGRVVAALRQKAGGAEVARAVTRALADPLNEELRESVLSGLLRPEELVALDEVSLLNQAERSVLAKARRERLNQHSVEYLERLNLTVTNMLTCPECRSHECYANFRFTDFVKWQGDDQTPTLQRCCRCSVSFCNERGKRAASAPGACLCAWVAVKVLSATTASRPCIHPSSNRHRTARRGSTRETGKISRFSSCRTRHHFCQKR | not soluble
MAHHHHHHMSEQILFDNFPLTFLNKDASEDYEDKNEKTYREKIKNIIEDLKSLRIEINEKYSIRSMLEEKLTLLQKEEQTKENNMKYIMNFSEHNIYEREVLNYQKNIAHLKKQIQTSNSKIKLLLEKEFKVRKQLQINYMNLYDILNERIEYIVENYVKHRKCSCAIYAYKQEKKEE | not soluble
